Data published in article doi:10.1101/2025.04.23.650173 (bioRxiv, 2025).
Where two headings read alike, the source gives them in different places.

Tests used:
[1] = target: the molecule itself; assay: AUC
[2] = target: the molecule itself; assay: AUC; remark: listed apart in the source

B1: wild type murine CXCL4 (natural protein, mouse, UniProt Q9Z126 30-105, looked up)
chain: VTSAGPEESDGDLSCVCVKTISSGIHLKHITSLEVIKAGRHCAVPQLIATLKNGRKICLDRQAPLYKKVIKKILES
stoichiometry N [1]: 2 | stoichiometry N [2]: 4
